Experimental findings from patent publication US20090068110A1, “ANTIBODIES TO INSULIN-LIKE GROWTH FACTOR RECEPTOR” (Genentech, Inc., priority 2006, published 2009) are described below.

In one test the target is IGF-1R (Homo sapiens, UniProt P08069). The experiment in a line: KIRA assay of IGF-1R phosphorylation in MCF7 cells. Type of test: cell-based. Also on record: IGF-1R is normally localized at the plasma membrane of MCF7 cells; endogenous in cells; host or cells: MCF7. The note with it: IGF-I 10 ng/ml or IGF-II 50 ng/ml; ranking upon IGF-II stimulation. On the procedure:
Also examined was whether the blocking activity of these antibodies was sufficient to interfere with receptor activation, which is measured by IGF-1R phosphorylation. A KIRA assay (kinase receptor activation) was utilized to perform quantitative analysis of IGF-1R phosphorylation in MCF7 cells. Anti-IGF-1R antibodies in serial dilutions (0.19 to 200 nM in medium) were added to MCF7 cells in 96-well plates for one hour. IGF-I (10 ng/ml) or IGF-11 (50 ng/ml) was subsequently added and incubated for ten minutes. The cells were lysed, and the resulting lysates were transferred to an ELISA plate, which was coated with IGF-1R-capturing antibody 3B7 (250 ng/well). After incubation for two hours, the cell lysate was removed, and the plates were washed. Phosphotyrosine-specific antibody 4G10 (Upstate, Charlottesville, Va., USA) was added to detect IGF-1R phosphorylation through TMB peroxidase substrate.

Test [1] concerns IGF-1R signaling (phospho-IGF-1R, AKT, ERK1/2). The experiment in a line: Western blotting of IGF-1R signaling in MCF7 cells. In kind it is cell-based, human. The note with it: for inhibition of IGF-I-mediated AKT activation: serum-starved MCF7, IGF-I 50 ng/ml; for inhibition of IGF-II-mediated IGF-1R phosphorylation and downstream AKT and MAPK1/2 activation: serum-starved MCF7, IGF-II 100 ng/ml. On the procedure:
Also examined was the effect of these antibodies on ligand-dependent IGF-1R signaling by directly analyzing IGF-1R phosphorylation as well as major downstream pathways, such as AKT and MAPK activation. In this assay, MCF7 cells were grown in 6-well plates and serum was withdrawn for 16 hours. […] The cells were directly lysed in SDS sample buffer, and the lysate was analyzed by Western blotting using antibodies against IGF-1R, phospho-IGF-1R, AKT, phospho-AKT, ERK1/2, phospho-ERK1/2 (also called MAPK1/2 and phospho-MAPK1/2) (all from Cell Signaling Technology, Inc.; Beverly, Mass., USA).
For the IGF-1R signaling pathway analysis, MCF7 cells were grown in six-well plates for 24 hours and then serum starved (serum-free and phenol-free RPMI medium supplemented with 1 mg/mL BSA) overnight. The cells were first incubated with h10H5 for 20 minutes, then stimulated with 50 ng/mL IGF-1 or 100 ng/mL IGF-11 for ten minutes. Cells were directly lysed in SDS sample buffer to preserve protein phosphorylation. After brief sonication, the lysates were separated by SDS-PAGE and transferred to nitrocellulose membranes (Invitrogen; Carlsbad, Calif.), which were probed with anti-phospho-IGF-1R, AKT, and ERK1/2 antibodies. The same blots were then stripped using Stripping Buffer™ (Pierce Biotechnology; Rockford, Ill.) and re-probed with antibodies against total IGF-1R β, AKT, and ERK1/2.
On the technique in general: In western blotting, separated proteins are transferred to a membrane and probed.

The test system of the next test is SW480. The experiment in a line: cell viability assay, SW480. Also on record: key: +: growth inhibition; −: no or weak effect. Type of test: cell-based, human. The note with it: SW480, Colorectal Adenocarcinoma. On the procedure:
(§1) The different cell lines were cultured in their respective culture media at 37° C. in a humidified atmosphere of 5% CO2. Subsequently, cells were detached from tissue-culture flasks using the cell-dissociation solution, TRIPLE SELECT™ solution (InVitrogen, Carlsbad, Calif., USA), and centrifuged at 1000 rpm for five minutes. Detached cells were washed once with PBS, counted, and seeded in 96-well plates (Corning, N.Y., USA) at 2000 cells per well in 100 μL of culture media. After an overnight incubation at 37° C. in a humidified atmosphere of 5% CO2, the cell-culture medium was replaced with 50 μL of starvation medium consisting of serum-free RPMI 1640™ medium without phenol red. The cells were then starved for five hours in the incubator before addition of 25 μL of each anti-IGF-1R monoclonal antibody at various dilutions in serum-free RPMI 1640™ phenol red-free media. Later, 25 μL of phenol red-free RPMI 1640™ media supplemented with 4% of fetal bovine serum (FBS) (Sigma) with or without 4 ng/ml of human recombinant IGF-I were added on top of the 50 μL of antibody. The cells were then placed at 37° C. with 5% CO2 for 5 to 6 days. At the end of the assay, cell viability was measured using the […]-GLO® kit according to the manufacturer's instructions (Promega, Madison, Wis., USA).

The next test has as its system HT29. The experiment in a line: cell viability assay, HT29. In kind it is cell-based, human. Also on record: key: +: growth inhibition; −: no or weak effect. The note with it: HT29, Colorectal Adenocarcinoma. On the procedure: as §1
The test system of a further test is HCT15. The experiment in a line: cell viability assay, HCT15. Type of test: cell-based, human. Also on record: key: +: growth inhibition; −: no or weak effect. The note with it: HCT15, Colorectal Adenocarcinoma. On the procedure:
as §1

The next test deals with T1, human IGF-1R-ECD (Homo sapiens, UniProt P08069).
T1 construct: containing the extracellular domain (ECD, amino acids 1-902) tagged with 10 or 12 histidine residues at the carboxyl terminus; His10 or His12 (C); made in house; host or cells: CHO cells
The experiment in a line: competitive ELISA, blocking of IGF-I/II and IGF-1R interaction. In kind it is binding. The note with it: antibody 100 nM to 0.0976 nM, biotinyl-IGF-I or IGF-II 60 ng/ml. On the procedure: To determine whether the anti-IGF-1R antibodies could block ligand/receptor interaction, competitive ELISA was utilized. Human IGF-1R-ECD was coated overnight at 4° C. at 1 μg/ml in a 96-well immunoplate (Nalge Nunc International, Rochester, N.Y., USA). The ELISA plate was washed with wash buffer (PBS, 0.05% TWEEN™ 20 surfactant, pH 7.4), and 150 μl/well of blocking buffer (PBS with 0.5% BSA) was added for one hour at room temperature with gentle agitation. Purified anti-IGF-1R antibodies were first subjected to a two-fold dilution from 100 nM to 0.0976 nM in assay buffer (PBS, 0.5% BSA and 0.05% TWEEN™ 20 surfactant, pH 7.4) and added to the immunoplate to incubate at room temperature for one hour. Biothinyl-IGF-I or IGF-II at 60 ng/ml concentrations (Cell Science, Canton, Mass., USA) was then added and incubated for another 30 minutes. The ELISA plate was washed three times, and 100 μl/well of streptavidin-HRP (GE Healthcare, Piscataway, N.J., USA) at a dilution of 1:6,000 was added for 20 minutes. Color development was conducted as described in conjunction with the direct ELISA. The selected anti-IGF-1R antibodies inhibited IGF-I or IGF-II binding to IGF-1R to various degrees (FIGS. 19A and 19B for IGF-I and IGF-II, respectively).
In general terms: In an ELISA, binding on a coated surface is turned into a signal by an enzyme label.

B1: 9F2: mouse monoclonal anti-IGF-1R antibody from hybridoma 9F2.6.2, ATCC PTA-7018 (antibody, V domains shown)
VH: QIQLVQSGPELKKPGETVKISCKASGYTLANYGMNWVKQAPGKGFKWMGWINTNTGKPTYSDEFKGRFVFSLETSASTAYLLINNLSNEDTATYFCARSIYYYGSRYFNVWGAGTT
VL: DIQMTQSTSSLSASLGDRVTISCRASQDINNYLTWYQQKPDGTVKLLIYYTSRLHSGVPSRFSGSGSGTDYSLTITNLEQEDFATYFCQQGNTLPWTFGEGTKVEIKR
As for B1, in the test with IGF-1R, the “inhibition of IGF-I/II-mediated IGF-1R phosphorylation (KIRA)” value is on record as “most effective group”. Also, the “inhibition of IGF-I-mediated AKT activation” value in test [1] was “potently prevented AKT activation”. For the same molecule, the “inhibition of IGF-II-mediated IGF-1R phosphorylation and downstream AKT and MAPK1/2 activation” value in test [1] is reported as “remained as strong inhibitors”. For the same molecule, the “Effect of IR3, 6D2, 9F2, and 10H5” value was “+” in the test on SW480, “+” in the test on HT29 and “−” with HCT15. Also, the “inhibition of IGF-I or IGF-II binding to IGF-1R” value with human IGF-1R-ECD is reported as “most potent group”.

B2: 10H5: mouse monoclonal anti-IGF-1R antibody from hybridoma 10H5.3.4, ATCC PTA-7007 (antibody, V domains shown)
VH: QVQLQQPGAELVKPGASVTLSCKASGYTFTRFWIHWVKQRPGQGLEWIGEINPSNGRTNYNENFKNKATLTVDTSSSTAYMQLSSLTSEVSVVYYCARGGRLDQWGQGTT
VL: DIVMTQSQKFMSTSLGDRVSVTCKASQNVGSNVAWYQQKPGQSPEALIYSASYRYSGVPDRFTGSGSGTDFTLTISNVQSEDLAEYFCHQYNNYPYTFGGGTKVEIKR
In the case of B2, in the test with IGF-1R, the “inhibition of IGF-I/II-mediated IGF-1R phosphorylation (KIRA)” value was “most effective group”. For the same molecule, the “inhibition of IGF-I-mediated AKT activation” value in test [1] is recorded as “potently prevented AKT activation”. In addition, the “inhibition of IGF-II-mediated IGF-1R phosphorylation and downstream AKT and MAPK1/2 activation” value in test [1] is on record as “remained as strong inhibitors”. The results for the “Effect of IR3, 6D2, 9F2, and 10H5” value in the test on SW480, with HT29 and in the test with HCT15 were “+”, “+” and “−”, respectively. Besides, in the test with human IGF-1R-ECD, the “inhibition of IGF-I or IGF-II binding to IGF-1R” value is listed as “most potent group”.
